26 molecules from US20260184782A1 (TWIST BIOSCIENCE, published 2026) can be followed below.

As usually defined, the Kd is the free concentration of one partner at which half of the binding sites on the other are occupied at equilibrium, for simple one-to-one binding. As usually defined, the koff is a measure of how fast the partners let go of each other. Usually kon stands for a measure of how fast the partners come together.

For this assay, the target named is T1, recombinant human TIGIT (human, UniProt Q495A1 22-141, limits assumed).
T1 construct: recombinant human TIGIT used in Carterra SPR; also called hTIGIT
T1 sequence (looked up): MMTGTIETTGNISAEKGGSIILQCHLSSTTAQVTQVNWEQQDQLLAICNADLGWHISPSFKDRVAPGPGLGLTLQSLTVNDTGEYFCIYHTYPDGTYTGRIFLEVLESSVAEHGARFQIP
Description: SPR Carterra, average. As to the method: Binding affinities of VHH-Fc proteins to recombinant human TIGIT were measured by SPR using a Carterra instrument (Table 10A). […] Average values reported from measurements from 1-2 samples.

Substitutions are numbered along the chain they refer to.

B1: TIGIT-SC149 (Fc fusion)
VHH: EVQLVESGGGLVQPGGSLRLSCAASGFTLENNMMGWFRQAPGKEREFVAAISRSGTLKAYADSVKGRFTISADNSKNTAYLQMNSLKPEDTAVYYCAKVQGPYCSGGSCYLYTFDLWGQGTLVTVSS
notes: VHH-Fc fusion in assay
For B1, the Kd turned out to be 35 nM, the koff came out at 0.0043 s⁻¹ and the kon was 123000 M⁻¹ s⁻¹.

B2: TIGIT-SC44 (Fc fusion)
VHH: EVQLVESGGGLVQPGGSLRLSCAASGSIFGLGAMGWFRQAPGKERELVAITWGGSTTLYADSVKGRFTISADNSKNTAYLQMNSLKPEDTAVYYCATDQGQWLFDFWGQGTLVTVSS
notes: VHH-Fc fusion in assay
As for B2, the Kd turned out to be 35.1 nM, the off-rate constant (koff) worked out at 0.0124 s⁻¹ and the kon is 354000 M⁻¹ s⁻¹.

B3: TIGIT-SC85 (Fc fusion)
VHH: EVQLVESGGGLVQPGGSLRLSCAASGRTFSPYTMGWFRQAPGKEREWVAGISQSGGSTAYADSVKGRFTISADNSKNTAYLQMNSLKPEDTAVYYCARDLNAMGDAYDIWGQGTLVTVSS
notes: VHH-Fc fusion in assay
Take B3: the Kd was 44.6 nM, the koff was 0.000599 s⁻¹ and the kon worked out at 8760 M⁻¹ s⁻¹.

B4: TIGIT-SC129 (Fc fusion)
VHH: EVQLVESGGGLVQPGGSLRLSCAASGPTLGSYVMGWFRQAPGKEREFVAAISGSGDDTYYADSVKGRFTISADNSKNTAYLQMNSLKPEDTAVYYCARWREFPGYYFAIDVWGQGTLVTVSS
notes: VHH-Fc fusion in assay
As for B4, the Kd is 43.9 nM, the koff turned out to be 0.00191 s⁻¹ and the kon worked out at 43700 M⁻¹ s⁻¹.

B5: TIGIT-SC130 (Fc fusion)
VHH: B4 VHH with M34T, G55S
notes: VHH-Fc fusion in assay
As for B5, the dissociation constant (Kd) came to 73 nM, the koff came to 0.00526 s⁻¹ and the kon came out at 72000 M⁻¹ s⁻¹.

B6: TIGIT-SC125 (Fc fusion)
VHH: EVQLVESGGGLVQPGGSLRLSCAASGFTLSGNWMGWFRQAPGKEREMVAAIDWSGGSALYADSVKGRFTISADNSKNTAYLQMNSLKPEDTAVYYCAKDALSNSARFDHWGQGTLVTVSS
notes: VHH-Fc fusion in assay
In the case of B6, the equilibrium dissociation constant (Kd) was 61.3 nM, the koff was 0.00807 s⁻¹ and the kon is 142000 M⁻¹ s⁻¹.

B7: TIGIT-SC56 (Fc fusion)
VHH: EVQLVESGGGLVQPGGSLRLSCAASGNTFSGGFMGWFRQAPGKEREWVASVLRGGYTWYADSVKGRFTISADNSKNTAYLQMNSLKPEDTAVYYCAHSKGYNWFDPWGQGTLVTVSS
notes: VHH-Fc fusion in assay
Turning to B7, the equilibrium dissociation constant (Kd) came to 26.9 nM, the koff turned out to be 0.000801 s⁻¹ and the kon was 29800 M⁻¹ s⁻¹.

B8: TIGIT-SC89 (Fc fusion)
VHH: EVQLVESGGGLVQPGGSLRLSCAASGSMSSINAMGWFRQAPGKEREFVAAINYEGDRTYYADSVKGRFTISADNSKNTAYLQMNSLKPEDTAVYYCARWTRGLVSGTYYYYMDVWGQGTLVTVSS
notes: VHH-Fc fusion in assay
For B8, the Kd was 30.8 nM, the koff was found to be 0.00294 s⁻¹ and the kon worked out at 106000 M⁻¹ s⁻¹.

B9: TIGIT-SC90 (Fc fusion)
VHH: EVQLVESGGGLVQPGGSLRLSCAASGDTFSSKAMGWFRQAPGKEREFVAAIRWSVSSTYYADSVKGRFTISADNSKNTAYLQMNSLKPEDTAVYYCARWTRGLVSGTYYYYMDVWGQGTLVTVSS
notes: VHH-Fc fusion in assay
Regarding B9, the Kd is 59.5 nM, the koff is 0.00301 s⁻¹ and the kon came to 50500 M⁻¹ s⁻¹.

B10: TIGIT-SC133 (Fc fusion)
VHH: EVQLVESGGGLVQPGGSLRLSCAASGFTLENNMMGWFRQAPGKEREFVAAISASGTLRAYADSVKGRFTISADNSKNTAYLQMNSLKPEDTAVYYCACGRVSGAFIYFDYWGQGTLVTVSS
notes: VHH-Fc fusion in assay
As for B10, the Kd came to 41.9 nM, the off-rate (koff) turned out to be 0.00561 s⁻¹ and the on-rate constant (kon) is 158000 M⁻¹ s⁻¹.

B11: TIGIT-SC28 (Fc fusion)
VHH: EVQLVESGGGLVQPGGSLRLSCAASGRTFSTDAMGWFRQAPGKEREFVATINWKDGFTYYADSVKGRFTISADNSKNTAYLQMNSLKPEDTAVYYCAGVGHDYGDYLFDYWGQGTLVTVSS
notes: VHH-Fc fusion in assay
With B11, the Kd was 23.9 nM, the koff was determined as 0.00179 s⁻¹ and the kon came out at 75100 M⁻¹ s⁻¹.

B12: TIGIT-SC128 (Fc fusion)
VHH: EVQLVESGGGLVQPGGSLRLSCAASGFIGNYHAMGWFRQAPGKEREFVARITSGGSTYYADSVKGRFTISADNSKNTAYLQMNSLKPEDTAVYYCGGFGNWGQGTLVTVSS
notes: VHH-Fc fusion in assay
As for B12, the dissociation constant (Kd) is 45.4 nM, the koff was determined as 0.00708 s⁻¹ and the kon was 158000 M⁻¹ s⁻¹.

B13: TIGIT-SC12 (Fc fusion)
VHH: EVQLVESGGGLVQPGGSLRLSCAASGRTFSAYGMGWFRQAPGKEREFVAAITPSSRTTYYADSVKGRFTISADNSKNTAYLQMNSLKPEDTAVYYCAKDNWGEWLMPWWGQGTLVTVSS
notes: VHH-Fc fusion in assay
For B13, the Kd stood at 22.8 nM, the koff stood at 0.0049 s⁻¹ and the kon was determined as 221000 M⁻¹ s⁻¹.

B14: TIGIT-SC161 (Fc fusion)
VHH: EVQLVESGGGLVQPGGSLRLSCAASGFTFSPSWMGWFRQAPGKEREWVASVLRGGYTWYADSVKGRFTISADNSKNTAYLQMNSLKPEDTAVYYCTTDRAIGVRPLFDHWGQGTLVTVSS
notes: VHH-Fc fusion in assay
Regarding B14, the Kd stood at 33.9 nM, the koff turned out to be 0.00146 s⁻¹ and the kon is 57100 M⁻¹ s⁻¹.

B15: TIGIT-SC162 (Fc fusion)
VHH: B14 VHH with F27N, P31G, S32G, W33F
notes: VHH-Fc fusion in assay
Take B15: the Kd was determined as 126 nM, the koff was 0.0203 s⁻¹ and the kon was found to be 622000 M⁻¹ s⁻¹.

B16: TIGIT-SC147 (Fc fusion)
VHH: EVQLVESGGGLVQPGGSLRLSCAASGTITSAVFMGWFRQAPGKEREFVAAVIWRGGSLKSYADSVKGRFTISADNSKNTAYLQMNSLKPEDTAVYYCAKLAVAGNYYYYGMDVWGQGTLVTVSS
notes: VHH-Fc fusion in assay
B16: the dissociation constant (Kd) came out at 24 nM, the off-rate (koff) came to 0.0115 s⁻¹ and the kon was determined as 383000 M⁻¹ s⁻¹.

B17: TIGIT-SC80 (Fc fusion)
VHH: EVQLVESGGGLVQPGGSLRLSCAASGNIPPINAMGWFRQAPGKEREFVAAINYSGGSTYYADSVKGRFTISADNSKNTAYLQMNSLKPEDTAVYYCARWHYDILTGYYWLDSWGQGTLVTVSS
notes: VHH-Fc fusion in assay
In the case of B17, the Kd was found to be 28.3 nM, the koff came out at 0.00179 s⁻¹ and the kon is 63200 M⁻¹ s⁻¹.

B18: TIGIT-SC79 (Fc fusion)
VHH: B17 VHH with N27S, P29L, P30S, A33T, N52T, Y53S, S54A, S57T
notes: VHH-Fc fusion in assay
For the molecule B18, the dissociation constant (Kd) was 56 nM, the koff worked out at 0.00445 s⁻¹ and the kon was determined as 79500 M⁻¹ s⁻¹.

B19: TIGIT-SC99 (Fc fusion)
VHH: EVQLVESGGGLVQPGGSLRLSCAASGSIFSMNTMGWFRQAPGKEREFVGAINWSGGSTIYADSVKGRFTISADNSKNTAYLQMNSLKPEDTAVYYCARWDYDILTNYYWLEYWGQGTLVTVSS
notes: VHH-Fc fusion in assay
In the case of B19, the Kd came to 52.4 nM, the koff turned out to be 0.00428 s⁻¹ and the kon stood at 81600 M⁻¹ s⁻¹.

B20: TIGIT-SC65 (Fc fusion)
VHH: EVQLVESGGGLVQPGGSLRLSCAASGFTFGNYDMGWFRQAPGKEREFVAAITGSGRSTYYADSVKGRFTISADNSKNTAYLQMNSLKPEDTAVYYCARGRIAASGTKVYWYFDLWGQGTLVTVSS
notes: VHH-Fc fusion in assay
Turning to B20, the Kd is 44.9 nM, the koff worked out at 0.0249 s⁻¹ and the kon amounted to 1.09e+06 M⁻¹ s⁻¹.

B21: TIGIT-SC87 (Fc fusion)
VHH: EVQLVESGGGLVQPGGSLRLSCAASGSIDTINTMGWFRQAPGKEREFVAAITPSSRTTYYVDSVKGRFTISADNSKNTAYLQMNSLKPEDTAVYYCARWGGVTFGGVYPLEYWGQGTLVTVSS
notes: VHH-Fc fusion in assay
Regarding B21, the Kd is 28.7 nM, the koff stood at 0.00564 s⁻¹ and the kon worked out at 196000 M⁻¹ s⁻¹.

B22: TIGIT-SC131 (Fc fusion)
VHH: EVQLVESGGGLVQPGGSLRLSCAASGDTSEIYDMGWFRQAPGKEREFVAITWNSGRIGSNGFATYADSVKGRFTISADNSKNTAYLQMNSLKPEDTAVYYCARWAVGQAFDLWGQGTLVTVSS
notes: VHH-Fc fusion in assay
With B22, the Kd turned out to be 41 nM, the off-rate (koff) is 0.0278 s⁻¹ and the kon was 677000 M⁻¹ s⁻¹.

B23: TIGIT-SC144 (Fc fusion)
VHH: EVQLVESGGGLVQPGGSLRLSCAASGFTLENNMMGWFRQAPGKEREFVAAISPSGTLRAYADSVKGRFTISADNSKNTAYLQMNSLKPEDTAVYYCAGIHDSGVPLGNWGQGTLVTVSS
notes: VHH-Fc fusion in assay
With B23, the Kd stood at 41 nM, the koff stood at 0.00574 s⁻¹ and the kon was found to be 140000 M⁻¹ s⁻¹.

B24: TIGIT-SC66 (Fc fusion)
VHH: EVQLVESGGGLVQPGGSLRLSCAASGTTFSSAAMGWFRQAPGKEREWVASVLRGGYTWYADSVKGRFTISADNSKNTAYLQMNSLKPEDTAVYYCVTDPRQWLGHDYWGQGTLVTVSS
notes: VHH-Fc fusion in assay
In the case of B24, the dissociation constant Kd came out at 39.1 nM, the koff is 0.00116 s⁻¹ and the kon was determined as 29700 M⁻¹ s⁻¹.

B25: TIGIT-SC154 (Fc fusion)
VHH: EVQLVESGGGLVQPGGSLRLSCAASGFAFSSDWMGWFRQAPGKEREWVASVLRGGYTWYADSVKGRFTISADNSKNTAYLQMNSLKPEDTAVYYCAGDYRGFEMAFDPWGQGTLVTVSS
notes: VHH-Fc fusion in assay
Take B25: the Kd was determined as 22.5 nM, the koff worked out at 0.00219 s⁻¹ and the kon worked out at 130000 M⁻¹ s⁻¹.

B26: TIGIT-SC102 (Fc fusion)
VHH: EVQLVESGGGLVQPGGSLRLSCAASGSTFSKHHAMGWFRQAPGKEREFVAAIRWSGGNTYYADSVKGRFTISADNSKNTAYLQMNSLKPEDTAVYYCARWYSSSGDYYYMDVWGQGTLVTVSS
notes: VHH-Fc fusion in assay
Take B26: the Kd was 33.5 nM, the koff came to 0.00146 s⁻¹ and the kon stood at 43500 M⁻¹ s⁻¹.
